The values that follow come from article PMC11703348, “Role of Aspartate 42 and Histidine 79 in the aiPLA2 activity and oligomeric status of Prdx6 at low pH” (Research Square, 2024).

Series [1] concerns the molecule itself. Description: dynamic light scattering; pH 7.4; protein 2 mg/ml, 25 °C; hydrodynamic diameter and volume fraction (Zetasizer).
Series [2] deals with the molecule itself. Description: native gel or EMSA; native-PAGE at low pH: 40 mM Na-acetate pH 4, running buffer 30 mM beta alanine, 20 mM lactic acid pH 3.8, reverse polarity; continuous 7.5% gel, non-reducing, non-denaturing; markers BSA and ferritin. On the technique in general: A gel shift assay detects complexes by their altered migration in electrophoresis.
Series [3] concerns the molecule itself. Description: native gel or EMSA; native-PAGE at neutral pH: 50 mM Tris-HCl, 100 mM NaCl pH 7.4, running buffer 35 mM Hepes, 43 mM imidazole pH 7.4; continuous 7.5% gel, non-reducing, non-denaturing; markers BSA and ferritin.

B1: Peroxiredoxin 6 (Prdx6), recombinant rat wild type (enzyme, UniProt O35244 1-224, looked up)
chain: MPGGLLLGDEAPNFEANTTIGHIRFHDFLGDSWGILFSHPRDFTPVCTTELGRAAKLAPEFAKRNVKLIALSIDSVEDHFAWSKDINAYNGAAPTEKLPFPIIDDKDRDLAILLGMLDPAEKDEKGMPVTARVVFIFGPDKKLKLSILYPATTGRNFDEILRVVDSLQLTASNPVATPVDWKKGESVMVLPTLPEEEAKQLFPKGVFTKELPSGKKYLRYTPQP
notes: Peroxiredoxin 6 (Prdx6), rat, wild type; cloned between the NdeI and SapI sites of pTYB1; no extra residues remain after intein self-cleavage; also called Wt Prdx6; WT Prdx6
Take B1: the stoichiometry N (usually a count of units in the complex or per binding partner) in series [1] came to 2.

B2: D42A Prdx6 (Asp42 to Ala mutant of rat Prdx6) (enzyme, UniProt O35244 1-224, looked up)
chain: MPGGLLLGDEAPNFEANTTIGHIRFHDFLGDSWGILFSHPRAFTPVCTTELGRAAKLAPEFAKRNVKLIALSIDSVEDHFAWSKDINAYNGAAPTEKLPFPIIDDKDRDLAILLGMLDPAEKDEKGMPVTARVVFIFGPDKKLKLSILYPATTGRNFDEILRVVDSLQLTASNPVATPVDWKKGESVMVLPTLPEEEAKQLFPKGVFTKELPSGKKYLRYTPQP
notes: Peroxiredoxin 6 (Prdx6), rat, with Asp42 replaced by Ala (QuikChange mutagenesis); the methods print it once as Asp43Ala; Same construct as m1 with the point mutation; also called Asp42A; Asp42-Ala
Consider B2, for which the “stoichiometry N” value is ~2 in series [2] and 2 in series [3].

B3: H79A Prdx6 (His79 to Ala mutant of rat Prdx6) (enzyme, UniProt O35244 1-224, looked up)
chain: MPGGLLLGDEAPNFEANTTIGHIRFHDFLGDSWGILFSHPRDFTPVCTTELGRAAKLAPEFAKRNVKLIALSIDSVEDAFAWSKDINAYNGAAPTEKLPFPIIDDKDRDLAILLGMLDPAEKDEKGMPVTARVVFIFGPDKKLKLSILYPATTGRNFDEILRVVDSLQLTASNPVATPVDWKKGESVMVLPTLPEEEAKQLFPKGVFTKELPSGKKYLRYTPQP
notes: Peroxiredoxin 6 (Prdx6), rat, with His79 replaced by Ala (QuikChange mutagenesis); Same construct as m1 with the point mutation; also called His79A; His79-Ala
As for B3, the “stoichiometry N” value in series [2] is ~2; in series [3], 2.
